Source: PMC11701102, “Structural insights into the interplay between microtubule polymerases, γ-tubulin complexes and their receptors” (Nature Communications, 2025)

Legend:
[1] = biological target: T1, His-Spc72^1-599 (C. albicans), co-expressed in insect cells (C. albicans, UniProt Q5AGV5 1-599); assay: SEC; FLAG-purified γ-TuSC/His-Spc72^1-599/FLAG-Stu2 on Superose 6 Increase 10/300 in HB100 buffer (40 mM K-HEPES pH 7.4, 100 mM KCl); fractions by SDS-PAGE, Western blot and gel densitometry; ring-like oligomers also seen by negative stain EM; settings: both partners purified
T1 construct: Only the CM1 motif is resolved in the cryo-EM map, as a parallel dimeric coiled coil; source: Sf21 insect cells, MultiBac co-expression with γ-TuSC components and FLAG-Stu2 or His-GFP-Mzt1
T1 sequence (looked up): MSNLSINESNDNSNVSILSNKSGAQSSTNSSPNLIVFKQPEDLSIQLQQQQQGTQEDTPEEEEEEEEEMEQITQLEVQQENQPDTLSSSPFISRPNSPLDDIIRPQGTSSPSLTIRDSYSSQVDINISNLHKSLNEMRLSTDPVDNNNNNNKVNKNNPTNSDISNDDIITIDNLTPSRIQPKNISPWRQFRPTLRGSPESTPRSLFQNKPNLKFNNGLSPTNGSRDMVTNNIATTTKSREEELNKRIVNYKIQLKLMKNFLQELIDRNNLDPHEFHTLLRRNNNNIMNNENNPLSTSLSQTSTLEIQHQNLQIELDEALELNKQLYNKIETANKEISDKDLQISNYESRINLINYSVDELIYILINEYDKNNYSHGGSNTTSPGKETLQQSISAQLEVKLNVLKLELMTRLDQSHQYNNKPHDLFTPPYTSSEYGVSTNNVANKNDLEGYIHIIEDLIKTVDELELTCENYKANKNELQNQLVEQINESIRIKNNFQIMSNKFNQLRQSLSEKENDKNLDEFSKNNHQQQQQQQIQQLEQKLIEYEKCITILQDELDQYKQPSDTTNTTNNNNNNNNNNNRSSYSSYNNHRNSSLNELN

[2] = biological target: the molecule itself; assay: SEC-MALS + other: mass photometry; FLAG-Stu2 (10 µM) and His-Spc72^291-599 (60 µM) alone or mixed 1:1 (vol), Superdex 200 Increase 5/150, 50 mM Tris-HCl pH 7.5, 150 mM NaCl, room temperature; mass photometry below 40 nM

B1: FLAG-Stu2 (C. albicans, full length) (natural protein, UniProt A0A1D8PTZ8 1-924, looked up)
chain: MSTEEEDYSNLSLEERFVHKVWKVRLQAYEELATNIENSRNESDPIFTSLSLDNLKKMILDSNVVAQETGYNTFNKFLIFGGNAANVSKLKNLGIIGSICEKGLLSSRKNTKEWSVESILLMIEISNDPNSIVEDILPYLTNRLPKLVTGCVSCLASIIENFGCKIISPKPIVPCLSKLFAHADKNVRNETTKLTIELYRWMGDALINALFSDLKPVQQKDLTAAFEKEKGTSPQQKRYTKKQREEIERREQEAAAAAAAAAATTAGNGGGNGDDVDDVEMSDVNGVTDDNEYDPLEFVDPVEVLNKFPSDFDSRISSSKWKDRKEVLEEIIPILEKSPKLITTDDYLPVLRIWAKCMKDANIQVVQLAANCIEFVIKGLGNEFSKYQSVVLTPVVERLKEKKPSVATALDNVLDALFNLSGFGNGVLDEAINGMKLKTPQNKIASANFVKRCLSTTKIPPKTSEIDAIMEVGIKLLSESQEPIRQAATEMIGTLMKITGPRELKPFLEKVDENRKNKINDYYEETAQVKTTMANASKSSSVASGSRNVSTAGGSFSSSTMKPPSKSSQDRKTSSGASSIIPAKRTASSPAKRDEVKNGRGMTARSLAKPNIPSLRPPTNVTQDSSGDGSSFSQQQQQQQVPSTSTGGGSGGAQSMISSVTNEEVNLLKQQIIKLQEEVQNYKNQQESHLKTIKLLEESNNNYREEIESVKRELSNEKRNATITTNHKDTHINNLKSELEKANYRIKDLEQEREINRLQQSNLAFERSNISSSNSRNSFYKPSPNKFAPSDISTGVKRLSIGGEENNHFGGGGGASPNFHNNTIHSTNTTTSTTATASGAGIGTGVGTGTGTGTGTGMGISRPTNSFRSSVNYGSTSSLTSSSRRESMDIDNGADWKRAAEVTLQLKARIERMKARTRSPLNIE
notes: Stu2, C. albicans, full-length Met1 to Glu924; FLAG tag followed by an HRV 3C cleavage site at the 5' end; also called wild-type FLAG-Stu2; source: Sf21 insect cells; not shown: FLAG, N-terminal, kept
- stoichiometry N [1]: < 2 Stu2 dimers per Spc72 dimer
- stoichiometry N [2]: 2
